Assay [1] has as its target T1, human Fcγ receptor IIA, H167 variant (human, UniProt P12318 36-218).
T1 sequence (looked up): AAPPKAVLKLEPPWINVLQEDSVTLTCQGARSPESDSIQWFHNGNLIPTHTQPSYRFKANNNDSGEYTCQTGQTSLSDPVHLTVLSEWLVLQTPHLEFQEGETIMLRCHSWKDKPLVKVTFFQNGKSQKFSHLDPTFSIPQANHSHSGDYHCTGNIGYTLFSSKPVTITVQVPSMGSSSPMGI
The assay can be described thus: SPR (Biacore T200), construct amine-coupled, Fcγ receptor titrated 375-6000 nM, 1:1 fit. As for the experimental part:
(§1) The Fc region incorporated into anti-PSMA bispecific constructs contained mutations intended to reduce or abolish binding to common human and cynomolgus Fc gamma receptors. SPR experiments were conducted at 25° C. in HBS-EP+ with 0.2% BSA buffer on a Biacore T200 system to evaluate the impact of these mutations on binding. For these experiments, three flow cells of a CM5 sensor chip were immobilized with anti-PSMA bispecifics by standard amine coupling to a response level of ˜2000 RU. A blank immobilization was performed on flow cell #1 for purposes of background signal subtraction. Both human and cynomolgus monkey Fcγ receptors (purchased from R&D Systems) were diluted in HBS-EP+ with 0.2% BSA to 4-6 μM and then flowed as analytes at 30 μL/min for 120 seconds followed by a 240 second dissociation step. No regeneration step was required. Blank-subtracted sensorgrams were visually inspected for binding to each of the Fcγ receptor proteins. […] Attenuated binding to Fcγ receptors IIA (both polymorphic variants) and IIB/C was observed. PSMA01107 and PSMA01108 share the same Fc amino acid sequence and therefore equivalent Fcγ receptor binding behavior was expected.
(§2) TSC266 (PSMA×CD3 bispecific antibody) and another protein containing a wild-type IgG1 Fc sequence were also analyzed for comparison. Sensorgrams obtained from kinetic SPR measurements were analyzed by the double subtraction method in the Biacore T200 evaluation software. Kinetic parameters were derived from a one-to-one binding fit model and reported below in Table 8. Both TSC266 and PSMA01107 show reduced binding compared to a wild type IgG1 Fc.

For assay [2], the target named is T2, human Fcγ receptor IIA, R167 variant (human, UniProt P12318 36-218).
T2 construct: also called Type IIA R167
T2 sequence (looked up): T1 sequence (looked up) with H132R
The assay is described as above. The protocol:
as §1, §2

Assay [3] addresses T3, Human PSMA ECD-AFH (TSC033), recombinant dimeric PSMA ECD (human, UniProt Q04609 44-750).
T3 construct: SEC-purified dimer; also called HuPSMA-AFH; Avi-His-Human PSMA ECD
The assay can be described thus: SPR (Biacore), recombinant dimeric PSMA ECD. The protocol: (§3) Mouse anti-human IgG (GE, BR-1008-39) at 25 μg/ml in 10 mM sodium acetate pH 5.0 was immobilized at a density of ˜2,000-4,000 response units (RU) onto each flow cell of a CM5 research-grade sensor chip (GE) by standard amine coupling chemistry. Each anti-PSMA protein at approximately 40 nM in dPBS with 0.2% BSA buffer was captured in a flow cell with the immobilized anti-human IgG at a flow rate of […] for up to 30 seconds, leaving one flow cell surface unmodified as the reference. Using a multi-cycle kinetics mode, a buffer blank and […] different concentrations of ECD ranging from 1 nM to 243 nM were sequentially injected through each flow cell at 30 μL/min with association times varying from 300-600 seconds and dissociation times varying from 600-1200 seconds. Regeneration was achieved by injection of 3 M MgCl₂ at a flow rate of 30 μL/min for up to 40 seconds followed by dPBS with 0.2% BSA buffer stabilization for 1 min.
(§4) The KD was determined for a set of PSMA×CD3 bispecific proteins binding to recombinant dimeric PSMA ECD using SPR. In comparison to the constructs analyzed in Table 3, which all had the anti-PSMA scFv in the VL-VH orientation, the constructs in Table 11 have sequences with the reverse the order of the variable domains. The constructs below utilize the PSMA01023 anti-PSMA sequence as a basis.

Assay [4] addresses T4, recombinant human FcRn/b2M complex (human, UniProt P55899 24-297; P61769 21-119, limits assumed).
T4 construct: also called hFcRn/b2M; neonatal Fc receptor
The assay can be described thus: SPR at pH 6.0, hFcRn/b2M amine-coupled, construct 1-81 nM as analyte, steady-state affinity model. The protocol: (§5) Recombinant FcRn/b2M protein was generated via transient transfection of HEK-293 cells with a bi-cistronic vector containing the genes for both FcRn and […]. The complex was purified using IMAC chromatography and subsequently buffer exchanged into PBS buffer after verifying purity of the IMAC eluate by analytical SEC. Purified hFcRn/b2M at 5 μg/ml in 10 mM sodium acetate (pH 5.0) was immobilized on a CM5 chip by direct amine coupling chemistry to a level of ˜400 RU. A reference flow cell was left blank.
(§6) Different concentrations of the Fc variant protein (1-81 nM by 3-fold dilutions in HBS-EP+ with 0.2% BSA running buffer at pH 6.0) including running buffer as blank were injected in randomized order at 30 μL/min for 180 seconds followed by a 180 second dissociation period. Optimal regeneration was achieved by two injections of HBS-EP+ with 0.2% BSA at pH 7.5 at a flow rate of […] for 30 seconds followed by running buffer stabilization for 1 minute.
(§7) Sensorgrams obtained from kinetic SPR measurements were analyzed by the double subtraction method. […] Buffer reference was subtracted from analyte binding responses, and the final double-referenced data were analyzed with Biacore T200 Evaluation software (2.0, GE), globally fitting data to derive kinetic parameters. […]

The target of assay [5] is T3, Human PSMA ECD-AFH (TSC033), …. As to the kind of experiment: SPR (Biacore), recombinant dimeric PSMA ECD. As for the experimental part:
as §3, §4
This is another data set of the same source.

Assay [6] has as its target T4, recombinant human FcRn/b2M complex. The assay can be described thus: SPR at pH 6.0, hFcRn/b2M amine-coupled, construct 1-81 nM as analyte, two-state reaction model fit. As for the experimental part:
as §5, §6, §7

Changes are numbered by the printed parent chain. Read-outs that look alike come from different tables or passages of the source.

The text below walks through data of patent US20240301086A1 (APTEVO RESEARCH AND DEVELOPMENT, published 2024).

T3 sequence (Q04609 other isoform, or with tags, fused parts or gaps): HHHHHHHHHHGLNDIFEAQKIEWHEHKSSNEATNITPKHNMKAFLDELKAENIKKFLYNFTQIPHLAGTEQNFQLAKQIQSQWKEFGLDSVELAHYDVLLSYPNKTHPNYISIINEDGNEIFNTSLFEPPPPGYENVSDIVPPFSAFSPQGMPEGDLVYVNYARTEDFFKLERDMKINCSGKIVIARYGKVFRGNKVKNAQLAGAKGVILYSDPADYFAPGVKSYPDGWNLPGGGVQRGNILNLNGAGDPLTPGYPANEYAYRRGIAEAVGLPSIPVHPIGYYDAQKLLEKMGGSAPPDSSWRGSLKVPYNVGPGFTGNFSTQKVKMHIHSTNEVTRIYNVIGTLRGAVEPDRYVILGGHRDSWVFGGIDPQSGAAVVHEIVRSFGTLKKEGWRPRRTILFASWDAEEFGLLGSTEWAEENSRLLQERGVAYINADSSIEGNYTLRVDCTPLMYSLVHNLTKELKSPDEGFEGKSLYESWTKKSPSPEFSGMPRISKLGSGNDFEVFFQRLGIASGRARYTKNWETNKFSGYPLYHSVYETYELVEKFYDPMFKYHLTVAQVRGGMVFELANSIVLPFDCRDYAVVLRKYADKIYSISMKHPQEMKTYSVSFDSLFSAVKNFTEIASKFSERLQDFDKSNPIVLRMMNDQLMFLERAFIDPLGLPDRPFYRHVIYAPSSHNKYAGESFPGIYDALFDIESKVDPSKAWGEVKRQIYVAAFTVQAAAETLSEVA
T4 sequence (P55899 24-297 limits assumed, chain 1 of 2): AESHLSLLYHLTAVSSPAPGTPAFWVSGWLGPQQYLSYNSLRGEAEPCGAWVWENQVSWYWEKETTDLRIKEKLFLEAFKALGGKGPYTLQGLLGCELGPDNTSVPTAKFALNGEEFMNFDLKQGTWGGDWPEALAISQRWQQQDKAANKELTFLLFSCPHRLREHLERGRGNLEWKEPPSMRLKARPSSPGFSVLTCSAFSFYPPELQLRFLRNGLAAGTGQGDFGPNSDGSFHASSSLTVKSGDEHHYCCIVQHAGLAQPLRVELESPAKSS
T4 sequence (P61769 21-119 limits assumed, chain 2 of 2): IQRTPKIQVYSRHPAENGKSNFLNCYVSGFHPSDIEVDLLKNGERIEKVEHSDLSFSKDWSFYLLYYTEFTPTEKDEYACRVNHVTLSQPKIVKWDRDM

B1: TSC266 Anti PSMA scFv x Anti CD3 scFv ADAPTIR (bispecific antibody)
chain: DIQMTQSPSAMSASVGDRVTITCRASKSISKYLAWFQQKPGKVPKLRIHSGSTLQSGVPSRFSGSGSGTEFTLTISSLQPEDFATYYCQQHIEYPWTFGQGTKVEIKRGGGGSGGGGSGGGGSQVQLVQSGAEVKKPGASVKVSCKASGYTFTDYYMHWVRQAPGQGLEWMGYFNPYNDYTRYAQKFQGRVTMTRDTSISTAYMELSSLRSDDTAVYYCARSDGYYDAMDYWGQGTTVTVSSSEPKSSDKTHTCPPCPAPEAAGAPSVFLFPPKPKDTLMISRTPEVTCVVVDVSHEDPEVKFNWYVDGVEVHNAKTKPREEQYNSTYRVVSVLTVLHQDWLNGKAYACAVSNKALPAPIEKTISKAKGQPREPQVYTLPPSRDELTKNQVSLTCLVKGFYPSDIAVEWESNGQPENNYKTTPPVLDSDGSFFLYSKLTVDKSRWQQGNVFSCSVMHEALHNHYTQKSLSLSPGQRHNNSSLNTGTQMAGHSPNSQVQLVESGGGVVQPGRSLRLSCKASGYTFTRSTMHWVRQAPGQGLEWIGYINPSSAYTNYNQKFKDRFTISADKSKSTAFLQMDSLRPEDTGVYFCARPQVHYDYNGFPYWGQGTPVTVSSGGGGSGGGGSGGGGSAQDIQMTQSPSSLSASVGDRVTMTCSASSSVSYMNWYQQKPGKAPKRWIYDSSKLASGVPARFSGSGSGTDYTLTISSLQPEDFATYYCQQWSRNPPTFGGGTKLQITSSS
notes: The anti-PSMA domain is that of PSMA01012 and the anti-CD3 domain is DRA222; also called unoptimized parent construct; TSC266 control (PSMA × CD3 bispecific protein)
As to B1, the dissociation constant (Kd) in assay [1] amounted to 20000 nM; in assay [2] it was 1500 nM.

B2: PSMA01107 Anti-PSMA scFv x Fc x linker x Anti CD3 scFv; Anti PSMA scFv x Fc (bispecific antibody)
chain 1: QVQLVQSGAEVKKPGASVKVSCKASGYTFTDYYMHWVRQAPGQGLEWMGYFNPYNDYTRYAQKFQGRVTMTRDTSTSTVYMELSSLRSEDTAVYYCARSDGYYDAMDYWGQGTTVTVSSGGGGSGGGGSGGGGSGGGGSDIQMTQSPSSLSASVGDRVTITCRASKSISKYLAWYQQKPGKAPKLLIHSGSSLESGVPSRFSGSGSGTEFTLTISSLQPDDFATYYCQQHIEYPWTFGQGTKVEIKEPKSSDKTHTCPPCPAPPAAAPSVFLFPPKPKDTLMISRTPEVTCVVVDVSHEDPEVKFNWYVDGVEVHNAKTKPREEQYNSTYRVVSVLTVLHQDWLNGKEYKCAVSNKALPAPIEKTISKAKGQPREPQVYTLPPSRDELTKNQVSLWCLVKGFYPSDIAVEWESNGQPENNYKTTPPVLDSDGSFFLYSKLTVDKSRWQQGNVFSCSVMHEALHNHYTQKSLSLSPGGGGSPSQVQLVQSGAEVKKPGASVKVSCKASGYTFTRSTMHWVRQAPGQGLEWIGYINPSSAYTNYAQKFQGRVTLTADKSTSTAYMELSSLRSEDTAVYYCASPQVHYDYNGFPYWGQGTLVTVSSGGGGSGGGGSGGGGSGGGGSDIQMTQSPSSLSASVGDRVTITCRASSSVSYMNWYQQKPGKAPKRWIYDSSKLASGVPSRFSGSGSGTDFTLTISSLQPEDFATYYCQQWSRNPPTFGQGTKVEIKRS
chain 2: QVQLVQSGAEVKKPGASVKVSCKASGYTFTDYYMHWVRQAPGQGLEWMGYFNPYNDYTRYAQKFQGRVTMTRDTSTSTVYMELSSLRSEDTAVYYCARSDGYYDAMDYWGQGTTVTVSSGGGGSGGGGSGGGGSGGGGSDIQMTQSPSSLSASVGDRVTITCRASKSISKYLAWYQQKPGKAPKLLIHSGSSLESGVPSRFSGSGSGTEFTLTISSLQPDDFATYYCQQHIEYPWTFGQGTKVEIKEPKSSDKTHTCPPCPAPPAAAPSVFLFPPKPKDTLMISRTPEVTCVVVDVSHEDPEVKFNWYVDGVEVHNAKTKPREEQYNSTYRVVSVLTVLHQDWLNGKEYKCAVSNKALPAPIEKTISKAKGQPREPQVYTLPPSRDELTKNQVSLSCAVKGFYPSDIAVEWESNGQPENNYKTTPPVLDSDGSFFLVSKLTVDKSRWQQGNVFSCSVMHEALHNHYTQKSLSLSPG
notes: Heterodimer, bivalent for PSMA and monovalent for CD3 (VH-VL scFv at the C-terminus); also called PSMA1107
For the molecule B2, the Kd in assay [3] was < 10 nM; in assay [4], 59 nM; in assay [1], 19900 nM; in assay [2], 5300 nM; in assay [5] it was 3.4 nM; in assay [6], 47 nM. For the same molecule, in assay [5], the dissociation rate constant (koff) came out at 8.5e-05 s⁻¹. Moreover, the kon in assay [5] turned out to be 29000 M⁻¹ s⁻¹.

B3: PSMA01108 Anti-PSMA scFv x Fc x linker x Anti CD3 scFv; Anti PSMA scFv x Fc (bispecific antibody)
chain 1: QVQLVQSGAEVKKPGASVKVSCKASGYTFTDYYMHWVRQAPGQGLEWMGYFNPYNDYTRYAQKFQGRVTMTRDTSTSTVYMELSSLRSEDTAVYYCARSDGYYDAMDYWGQGTTVTVSSGGGGSGGGGSGGGGSGGGGSDIQMTQSPSSLSASVGDRVTITCRASKSISKYLAWYQQKPGKAPKLLIHSGSSLESGVPSRFSGSGSGTEFTLTISSLQPDDFATYYCQQHIEYPWTFGQGTKVEIKEPKSSDKTHTCPPCPAPPAAAPSVFLFPPKPKDTLMISRTPEVTCVVVDVSHEDPEVKFNWYVDGVEVHNAKTKPREEQYNSTYRVVSVLTVLHQDWLNGKEYKCAVSNKALPAPIEKTISKAKGQPREPQVYTLPPSRDELTKNQVSLWCLVKGFYPSDIAVEWESNGQPENNYKTTPPVLDSDGSFFLYSKLTVDKSRWQQGNVFSCSVMHEALHNHYTQKSLSLSPGGGGSPSDIQMTQSPSSLSASVGDRVTITCRASSSVSYMNWYQQKPGKAPKRWIYDSSKLASGVPSRFSGSGSGTDFTLTISSLQPEDFATYYCQQWSRNPPTFGQGTKVEIKGGGGSGGGGSGGGGSGGGGSQVQLVQSGAEVKKPGASVKVSCKASGYTFTRSTMHWVRQAPGQGLEWIGYINPSSAYTNYAQKFQGRVTLTADKSTSTAYMELSSLRSEDTAVYYCASPQVHYDYNGFPYWGQGTLVTVSS
chain 2: B2 chain 2
notes: also called PSMA1108; PSAM01108
On to B3, for which the equilibrium dissociation constant (Kd) in assay [3] is < 10 nM; in assay [4] it was 27 nM; in assay [5] it was 3.1 nM; in assay [6], 19 nM. Besides, the koff in assay [5] came to 9e-05 s⁻¹. Besides, the kon in assay [5] came out at 29000 M⁻¹ s⁻¹.
